Laboratory results taken from patent publication KR20200144536A (dated 2020).

T1: 재조합 hAng-2 (C-His, R&D Systems) (human, UniProt O15123 19-496)
T1 construct: Bought protein; also called 인간 Ang-2 단백질; not shown: C-terminal His tag
T1 sequence: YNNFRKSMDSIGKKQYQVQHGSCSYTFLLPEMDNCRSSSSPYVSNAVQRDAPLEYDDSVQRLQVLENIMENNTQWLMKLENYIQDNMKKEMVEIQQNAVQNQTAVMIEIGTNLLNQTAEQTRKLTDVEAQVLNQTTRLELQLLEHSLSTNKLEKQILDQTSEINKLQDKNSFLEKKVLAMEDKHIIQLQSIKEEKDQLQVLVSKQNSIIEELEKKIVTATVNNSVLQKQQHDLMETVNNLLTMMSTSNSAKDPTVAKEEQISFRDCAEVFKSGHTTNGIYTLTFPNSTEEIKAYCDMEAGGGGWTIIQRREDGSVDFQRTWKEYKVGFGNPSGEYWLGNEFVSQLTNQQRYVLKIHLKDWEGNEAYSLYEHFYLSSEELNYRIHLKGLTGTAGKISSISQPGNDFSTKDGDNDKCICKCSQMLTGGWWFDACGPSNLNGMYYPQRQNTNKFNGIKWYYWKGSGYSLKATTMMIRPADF

B1: SAIT-ANG2-AB-m10D6 (antibody, V domains shown)
VH: DVQLQESGPGLVKPSQSLSLTCTVTGYSITSDYAWNWIRQFPGNKLEWMGYINYSGNTDYNPSLKSRSSITRDTSKNQFFLQLNSVTTGDTATYYCARGNFEGAMDYWGQGTSVTVSS
VL: SIVMTQTPKFLLVSAGDRVTITCKASQSVSNDVAWYQQKPGQSPKLLIYYASNRYPGVPDRFTGSGYGTDFTFTISTVQAEDLAVYFCQQDYSSPWTFGGGTKLEIK
notes: Mouse monoclonal antibody from a hybridoma (KCLRF-BP-00295), purified on protein G; also called 10D6 항체; 10D6 anti-Ang2 항체
B2: Ang2 단백질(R&D systems) (ligand)
chain: YNNFRKSMDSIGKKQYQVQHGSCSYTFLLPEMDNCRSSSSPYVSNAVQRDAPLEYDDSVQRLQVLENIMENNTQWLMKLENYIQDNMKKEMVEIQQNAVQNQTAVMIEIGTNLLNQTAEQTRKLTDVEAQVLNQTTRLELQLLEHSLSTNKLEKQILDQTSEINKLQDKNSFLEKKVLAMEDKHIIQLQSIKEEKDQLQVLVSKQNSIIEELEKKIVTATVNNSVLQKQQHDLMETVNNLLTMMSTSNSAKDPTVAKEEQISFRDCAEVFKSGHTTNGIYTLTFPNSTEEIKAYCDMEAGGGGWTIIQRREDGSVDFQRTWKEYKVGFGNPSGEYWLGNEFVSQLTNQQRYVLKIHLKDWEGNEAYSLYEHFYLSSEELNYRIHLKGLTGTAGKISSISQPGNDFSTKDGDNDKCICKCSQMLTGGWWFDACGPSNLNGMYYPQRQNTNKFNGIKWYYWKGSGYSLKATTMMIRPADF

How the values were obtained:
[1] = molecular target: Mutant Ang2 A449 (알라닌 치환), FLAG-tagged (human) (UniProt O15123); assay: ELISA, coated antibody (1000 nM), 250 ng FLAG-tagged mutant Ang2, anti-FLAG-HRP, OD450
[2] = molecular target: Mutant Ang2 D448 (알라닌 치환), FLAG-tagged (human) (UniProt O15123); assay: as above
[3] = molecular target: Mutant Ang2 F469 (알라닌 치환), FLAG-tagged (human) (UniProt O15123); assay: as above
[4] = molecular target: Mutant Ang2 I434 (알라닌 치환), FLAG-tagged (human) (UniProt O15123); assay: as above
[5] = molecular target: Mutant Ang2 K468 (알라닌 치환), FLAG-tagged (human) (UniProt O15123); assay: as above
[6] = molecular target: Mutant Ang2 N421 (알라닌 치환), FLAG-tagged (human) (UniProt O15123); assay: as above
[7] = molecular target: Mutant Ang2 N467 (알라닌 치환), FLAG-tagged (human) (UniProt O15123); assay: as above
[8] = molecular target: Mutant Ang2 P419 (알라닌 치환), FLAG-tagged (human) (UniProt O15123); assay: as above
[9] = molecular target: Mutant Ang2 P452 (알라닌 치환), FLAG-tagged (human) (UniProt O15123); assay: as above
[10] = molecular target: Mutant Ang2 Q418 (알라닌 치환), FLAG-tagged (human) (UniProt O15123); assay: as above
[11] = molecular target: Mutant Ang2 S417 (알라닌 치환), FLAG-tagged (human) (UniProt O15123); assay: as above
[12] = molecular target: Mutant Ang2 Y460 (알라닌 치환), FLAG-tagged (human) (UniProt O15123); assay: as above
[13] = molecular target: T1, 재조합 hAng-2 (C-His, R&D Systems); assay: SPR, BIAcore T100; hAng-2 (C-His) captured on an anti-His CM5 chip, antibody flowed from 100 nM in 2-fold dilutions
[14] = molecular target: T2, hTie2-Fc (R&D Systems) (human, UniProt Q02763 23-745); assay: Complex ELISA: coated Tie2-Fc (4 ug/ml), 0.25 ug/ml Ang2 and 2 ug/ml 10D6, anti-mouse IgG-HRP, OD450
T2 construct: Bought fusion protein; neither the Tie2 range nor the linker is stated; also called hTie-2/Fc 융합 단백질; not shown: Fc of human IgG1
T2 sequence (Q02763 23-745 limits assumed): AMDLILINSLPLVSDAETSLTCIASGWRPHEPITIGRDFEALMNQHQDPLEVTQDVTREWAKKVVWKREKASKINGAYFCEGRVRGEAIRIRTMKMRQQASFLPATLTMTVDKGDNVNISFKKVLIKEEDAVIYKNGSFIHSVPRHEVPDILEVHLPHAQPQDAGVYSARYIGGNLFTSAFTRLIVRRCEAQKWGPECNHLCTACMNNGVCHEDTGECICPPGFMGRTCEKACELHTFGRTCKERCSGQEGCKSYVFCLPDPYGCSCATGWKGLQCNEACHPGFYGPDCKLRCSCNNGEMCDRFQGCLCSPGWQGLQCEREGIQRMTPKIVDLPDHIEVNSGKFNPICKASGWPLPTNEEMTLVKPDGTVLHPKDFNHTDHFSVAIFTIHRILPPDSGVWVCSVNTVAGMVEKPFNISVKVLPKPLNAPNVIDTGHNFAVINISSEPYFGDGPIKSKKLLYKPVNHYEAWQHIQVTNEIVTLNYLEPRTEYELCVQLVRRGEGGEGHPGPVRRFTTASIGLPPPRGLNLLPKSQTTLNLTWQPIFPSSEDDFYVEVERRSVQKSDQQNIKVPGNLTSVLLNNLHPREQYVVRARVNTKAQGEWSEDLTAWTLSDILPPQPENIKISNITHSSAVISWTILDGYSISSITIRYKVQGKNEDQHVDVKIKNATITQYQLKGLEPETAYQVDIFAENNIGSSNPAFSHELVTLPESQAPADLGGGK

Row | Binder | binding to Mutant Ang2 relative to native Ang2 (%) [1] [%] | binding to Mutant Ang2 relative to native Ang2 (%) [2] [%] | binding to Mutant Ang2 relative to native Ang2 (%) [3] [%] | binding to Mutant Ang2 relative to native Ang2 (%) [4] [%] | binding to Mutant Ang2 relative to native Ang2 (%) [5] [%] | binding to Mutant Ang2 relative to native Ang2 (%) [6] [%] | binding to Mutant Ang2 relative to native Ang2 (%) [7] [%] | binding to Mutant Ang2 relative to native Ang2 (%) [8] [%] | binding to Mutant Ang2 relative to native Ang2 (%) [9] [%] | binding to Mutant Ang2 relative to native Ang2 (%) [10] [%] | binding to Mutant Ang2 relative to native Ang2 (%) [11] [%] | binding to Mutant Ang2 relative to native Ang2 (%) [12] [%] | Kd [13] [nM] | binding result [14]
1 | B1 | 97.9 | 105 | 109 | 109 | 110 | 109 | 107 | 41.1 | 102 | 38.9 | 101 | 103 | 8 | 
2 | B2 |  |  |  |  |  |  |  |  |  |  |  |  |  | binds
